The supplement of paper PMC5998384

What was measured:
HeLa Kyoto [1] = experiment: solubility in G1/S (NP-40 vs SDS abundance) (log2 ratio); higher = more soluble; details: cell cycle stage: G1/S
HeLa Kyoto [2] = experiment: thermal stability score vs G1/S (z-score of summed log2 fold changes over temperatures); higher = more thermally stable than in G1/S
HeLa Kyoto [3] = experiment: solubility change mitosis vs G1/S (difference of NP-40 vs SDS log2 ratios) (log2 ratio difference); higher = more soluble in mitosis
HeLa Kyoto [4] = experiment: melting temperature (median over replicates), in situ; higher = more thermally stable
[5] = cell cycle stage: early G1 (4.5 h after nocodazole release)
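Wherever melting temperature (median over replicates), in situ is given: HeLa Kyoto cells synchronized by double thymidine or nocodazole block, proteins quantified by TMT10plex mass spectrometry, three independent biological replicates.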
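Wherever solubility change mitosis vs G1/S (difference of NP-40 vs SDS log2 ratios) is given: synchronized HeLa Kyoto cells (double thymidine block for G1/S, nocodazole release for mitosis), protein amounts in NP-40 versus SDS lysates quantified by mass spectrometry, three biological replicates.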
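Wherever solubility in G1/S (NP-40 vs SDS abundance) is given: HeLa Kyoto cells arrested at G1/S by double thymidine block, proteins quantified by TMT10plex mass spectrometry in mild NP-40 versus SDS extracts, three biological replicates.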
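Wherever thermal stability score vs G1/S (z-score of summed log2 fold changes over temperatures) is given: synchronized HeLa Kyoto cells, proteins quantified by TMT10plex mass spectrometry, three biological replicates, mitosis taken 0.5 h after nocodazole release, G1/S directly after double thymidine block.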

| Sequence | solubility in G1/S (log2) (HeLa Kyoto [1]) | thermal stability score (HeLa Kyoto [2]; [5]) | thermal stability score (HeLa Kyoto [2]; cell cycle stage: mitosis) | solubility change mitosis (log2) (HeLa Kyoto [3]) | melting temperature (HeLa Kyoto [4]; cell cycle stage: G1/S) [°C] | melting temperature (HeLa Kyoto [4]; cell cycle stage: mitosis) [°C] |
| --- | --- | --- | --- | --- | --- | --- |
| MAASSLEQKLSRLEAKLKQENREARRRIDLNLDISPQRPRPTLQLPLANDGGSRSPSSESSPQHPTPPARPRHMLGLPSTLFTPRSMESIEIDQKLQEIMKQTGYLTIGGQRYQAEINDLENLGEMGSGTCGQVWKMRFRKTGHVIAVKQMRRSGNKEENKRILMDLDVVLKSHDCPYIVQCFGTFITNTDVFIAMELMGTCAEKLKKRMQGPIPERILGKMTVAIVKALYYLKEKHGVIHRDVKPSNILLDERGQIKLCDFGISGRLVDSKAKTRSAGCAAYMAPERIDPPDPTKPDYDIRADVWSLGISLVELATGQFPYKNCKTDFEVLTKVLQEEPPLLPGHMGFSGDFQSFVKDCLTKDHRKRPKYNKLLEHSFIKRYETLEVDVASWFKDVMAKTESPRTSGVLSQPHLPFFR [MAP2K7] | 0.237 | 1.35 | 1.39 | 0.0421 | 49.9 | 50 |
| MAASVAAAARRLRRAIRRSPAWRGLSHRPLSSEPPAAKASAVRAAFLNFFRDRHGHRLVPSASVRPRGDPSLLFVNAGMNQFKPIFLGTVDPRSEMAGFRRVANSQKCVRAGGHHNDLEDVGRDLSHHTFFEMLGNWAFGGEYFKEEACNMAWELLTQVYGIPEERLWISYFDGDPKAGLDPDLETRDIWLSLGVPASRVLSFGPQENFWEMGDTGPCGPCTEIHYDLAGGVGAPQLVELWNLVFMQHNREADGSLQPLPQRHVDTGMGLERLVAVLQGKHSTYDTDLFSPLLNAIQQGCRAPPYLGRVGVADEGRTDTAYRVVADHIRTLSVCISDGIFPGMSGPPLVLRRILRRAVRFSMEILKAPPGFLGSLVPVVVETLGDAYPELQRNSAQIANLVSEDEAAFLASLERGRRIIDRTLRTLGPSDMFPAEVAWSLSLCGDLGLPLDMVELMLEEKGVQLDSAGLERLAQEEAQHRARQAEPVQKQGLWLDVHALGELQRQGVPPTDDSPKYNYSLRPSGSYEFGTCEAQVLQLYTEDGTAVASVGKGQRCGLLLDRTNFYAEQGGQASDRGYLVRAGQEDVLFPVARAQVCGGFILHEAVAPECLRLGDQVQLHVDEAWRLGCMAKHTATHLLNWALRQTLGPGTEQQGSHLNPEQLRLDVTTQTPLTPEQLRAVENTVQEAVGQDEAVYMEEVPLALTAQVPGLRSLDEVYPDPVRVVSVGVPVAHALDPASQAALQTSVELCCGTHLLRTGAVGDLVIIGDRQLSKGTTRLLAVTGEQAQQARELGQSLAQEVKAATERLSLGSRDVAEALRLSKDIGRLIEAVETAVMPQWQRRELLATVKMLQRRANTAIRKLQMGQAAKKTQELLERHSKGPLIVDTVSAESLSVLVKVVRQLCEQAPSTSVLLLSPQPMGKVLCACQVAQGAMPTFTAEAWALAVCSHMGGKAWGSRVVAQGTGSTTDLEAALSIAQTYALSQL [AARS2] | -0.0312 | -0.609 | 0.833 | -0.0878 | 49.9 | 50 |
| MAASVVCRAATAGAQVLLRARRSPALLRTPALRSTATFAQALQFVPETQVSLLDNGLRVASEQSSQPTCTVGVWIDVGSRFETEKNNGAGYFLEHLAFKGTKNRPGSALEKEVESMGAHLNAYSTREHTAYYIKALSKDLPKAVELLGDIVQNCSLEDSQIEKERDVILREMQENDASMRDVVFNYLHATAFQGTPLAQAVEGPSENVRKLSRADLTEYLSTHYKAPRMVLAAAGGVEHQQLLDLAQKHLGGIPWTYAEDAVPTLTPCRFTGSEIRHRDDALPFAHVAIAVEGPGWASPDNVALQVANAIIGHYDCTYGGGVHLSSPLASGAVANKLCQSFQTFSICYAETGLLGAHFVCDRMKIDDMMFVLQGQWMRLCTSATESEVARGKNILRNALVSHLDGTTPVCEDIGRSLLTYGRRIPLAEWESRIAEVDASVVREICSKYIYDQCPAVAGYGPIEQLPDYNRIRSGMFWLRF [UQCRC1] | 0.324 | -0.504 | -3.84 | -0.0237 | 55.3 | 54.2 |
| MAATAAAVVAEEDTELRDLLVQTLENSGVLNRIKAELRAAVFLALEEQEKVENKTPLVNESLKKFLNTKDGRLVASLVAEFLQFFNLDFTLAVFQPETSTLQGLEGRENLARDLGIIEAEGTVGGPLLLEVIRRCQQKEKGPTTGEGALDLSDVHSPPKSPEGKTSAQTTPSKIPRYKGQGKKKTSGQKAGDKKANDEANQSDTSVSLSEPKSKSSLHLLSHETKIGSFLSNRTLDGKDKAGLCPDEDDMEGDSFFDDPIPKPEKTYGLRKEPRKQAGSLASLSDAPPLKSGLSSLAGAPSLKDSESKRGNTVLKDLKLISDKIGSLGLGTGEDDDYVDDFNSTSHRSEKSEISIGEEIEEDLSVEIDDINTSDKLDDLTQDLTVSQLSDVADYLEDVA [FGFR1OP] | 0.156 | -0.228 | -0.703 | -0.0261 | 52 | 52.4 |
| MAATAAEAVASGSGEPREEAGALGPAWDESQLRSYSFPTRPIPRLSQSDPRAEELIENEEPVVLTDTNLVYPALKWDLEYLQENIGNGDFSVYSASTHKFLYYDEKKMANFQNFKPRSNREEMKFHEFVEKLQDIQQRGGEERLYLQQTLNDTVGRKIVMDFLGFNWNWINKQQGKRGWGQLTSNLLLIGMEGNVTPAHYDEQQNFFAQIKGYKRCILFPPDQFECLYPYPVHHPCDRQSQVDFDNPDYERFPNFQNVVGYETVVGPGDVLYIPMYWWHHIESLLNGGITITVNFWYKGAPTPKRIEYPLKAHQKVAIMRNIEKMLGEALGNPQEVGPLLNTMIKGRYN [HIF1AN] | 0.273 | 0.637 | 1.68 | -0.0585 | 52.3 | 51.7 |
| MAATALLEAGLARVLFYPTLLYTLFRGKVPGRAHRDWYHRIDPTVLLGALPLRSLTRQLVQDENVRGVITMNEEYETRFLCNSSQEWKRLGVEQLRLSTVDMTGIPTLDNLQKGVQFALKYQSLGQCVYVHCKAGRSRSATMVAAYLIQVHKWSPEEAVRAIAKIRSYIHIRPGQLDVLKEFHKQITARATKDGTFVISKT [PTPMT1] | -0.268 | -0.395 | -0.764 | -0.0676 | 51.8 | 51.2 |
| MAATKRKRRGGFAVQAKKPKRNEIDAEPPAKRHATAEEVEEEERDRIPGPVCKGKWKNKERILIFSSRGINFRTRHLMQDLRMLMPHSKADTKMDRKDKLFVINEVCEMKNCNKCIYFEAKKKQDLYMWLSNSPHGPSAKFLVQNIHTLAELKMTGNCLKGSRPLLSFDPAFDELPHYALLKELLIQIFSTPRYHPKSQPFVDHVFTFTILDNRIWFRNFQIIEEDAALVEIGPRFVLNLIKIFQGSFGGPTLYENPHYQSPNMHRRVIRSITAAKYREKQQVKDVQKLRKKEPKTLLPHDPTADVFVTPAEEKPIEIQWVKPEPKVDLKARKKRIYKRQRKMKQRMDSGKTK [BRIX1] | -2.07 | 0.649 | -2.33 | 1.19 | 53.8 | 52.9 |
| MAATLKSLKLVRYRAFCSPSAFGAVRSVSYWNVSSTQHGGQDPPEHISLCHSAKKVKNICSTFSSRRILTTSSAHPGLEFSKTSSSKASTLQLGSPRATGVDEEDVEVFDSFENMRVFLQLRPEYRVHSYNASETSQLLSVSEGELILHKVRVNQNNLQAQVIVDYLCKLSSLPAEQHPVLLGSTSFALLCQLSVKKIQLFDTQDLINVLKAFVILGIPHSHSMLDVYETKCCHQVWEMNMDQLLLVADLWRYLGRKVPRFLNIFSSYLNLHWKDLSLSQLVHLIYVIGENRQVSQDLMQKLESLILKYIDLINLEEVGTICLGFFKSSTNLSEFVMRKIGDLACANIQHLSSRSLVNIVKMFRFTHVDHINFMKQIGEIAPQRIPSLGVQGVMHLTLYCSALRFLNEGVMNAVAASLPPRVAHCRSKDVAKILWSFGTLNYKPPNAEEFYSSLISEIHRKMPEFNQYPEHLPTCLLGLAFLEYFPVELIDFALSPGFVRLAQERTKFDLLKELYTLDGTVGIECPDYRGNRLSTHLQQEGSELLWYLAEKDMNSKPEFLETVFLLETMLGGPQYVKHHMILPHTRSSDLEVQLDVNLKPLPFNREATPAENVAKLRLEHVGVSLTDDLMNKLLKGKARGHFQGKTESEPGQQPMELENKAAVPLGGFLCNVADKSGAMEMAGLCPAACMQTPRMKLAVQFTNRNQYCYGSRDLLGLHNMKRRQLARLGYRVVELSYWEWLPLLKRTRLEKLAFLHEKVFTSAL [FASTKD5] | -0.184 | 0.139 | 1.05 | -0.0689 | 49.5 | 49.8 |
| MAAVDLEKLRASGAGKAIGVLTSGGDAQGMNAAVRAVTRMGIYVGAKVFLIYEGYEGLVEGGENIKQANWLSVSNIIQLGGTIIGSARCKAFTTREGRRAAAYNLVQHGITNLCVIGGDGSLTGANIFRSEWGSLLEELVAEGKISETTARTYSHLNIAGLVGSIDNDFCGTDMTIGTDSALHRIMEVIDAITTTAQSHQRTFVLEVMGRHCGYLALVSALASGADWLFIPEAPPEDGWENFMCERLGETRSRGSRLNIIIIAEGAIDRNGKPISSSYVKDLVVQRLGFDTRVTVLGHVQRGGTPSAFDRILSSKMGMEAVMALLEATPDTPACVVTLSGNQSVRLPLMECVQMTKEVQKAMDDKRFDEATQLRGGSFENNWNIYKLLAHQKPPKEKSNFSLAILNVGAPAAGMNAAVRSAVRTGISHGHTVYVVHDGFEGLAKGQVQEVGWHDVAGWLGRGGSMLGTKRTLPKGQLESIVENIRIYGIHALLVVGGFEAYEGVLQLVEARGRYEELCIVMCVIPATISNNVPGTDFSLGSDTAVNAAMESCDRIKQSASGTKRRVFIVETMGGYCGYLATVTGIAVGADAAYVFEDPFNIHDLKVNVEHMTEKMKTDIQRGLVLRNEKCHDYYTTEFLYNLYSSEGKGVFDCRTNVLGHLQQGGAPTPFDRNYGTKLGVKAMLWLSEKLREVYRKGRVFANAPDSACVIGLKKKAVAFSPVTELKKDTDFEHRMPREQWWLSLRLMLKMLAQYRISMAAYVSGELEHVTRRTLSMDKGF [PFKL] | -0.0607 | -1.97 | -2.04 | -0.179 | 58.6 | 58.1 |
| MAAVLKPVLLGLRDAPVHGSPTGPGAWTASKLGGIPDALPTVAAPRPVCQRCGQPLALVVQVYCPLEGSPFHRLLHVFACACPGCSTGGARSWKVFRSQCLQVPEREAQDAQKQGNSLAAEDWCEGADDWGSDTEEGPSPQFTLDFGNDASSAKDVDWTARLQDLRLQDAVLGAAHPVPPGLPLFLPYYICVADEDDYRDFVNLDHAHSLLRDYQQREGIAMDQLLSQSLPNDGDEKYEKTIIKSGDQTFYKFMKRIAACQEQILRYSWSGEPLFLTCPTSEVTELPACSQCGGQRIFEFQLMPALVSMLKSANLGLSVEFGTILVYTCEKSCWPPNHQTPMEEFCIIQEDPDELLFK [PDCD2L] | 0.287 | 0.0844 | 0.849 | 0.0741 | 48.9 | 49.8 |
